# Assay results published in article PMC9482650, “Quantitative fragmentomics allow affinity mapping of interactomes” (Nature Communications, 2022).
# Substitutions are numbered along the chain they refer to.
# T1: APBA1_1, Q02410
# T1 sequence (Q02410 651-752, limits assumed, looked up): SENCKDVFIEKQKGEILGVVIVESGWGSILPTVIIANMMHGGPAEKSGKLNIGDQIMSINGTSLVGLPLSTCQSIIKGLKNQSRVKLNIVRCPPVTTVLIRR
# T2: ARHGAP21, Q5T5U3
# T2 sequence (Q5T5U3 45-169, limits assumed, looked up): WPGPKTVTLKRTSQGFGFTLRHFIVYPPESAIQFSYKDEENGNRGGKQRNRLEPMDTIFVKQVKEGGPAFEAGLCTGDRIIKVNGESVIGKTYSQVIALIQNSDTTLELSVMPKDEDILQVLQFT
# T3: DFNB31_2, Q9P202
# T3 sequence (Q9P202 274-371, limits assumed, looked up): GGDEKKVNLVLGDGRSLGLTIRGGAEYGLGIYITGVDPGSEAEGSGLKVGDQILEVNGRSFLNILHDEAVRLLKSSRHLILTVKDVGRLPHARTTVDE
# T4: DLG3_2, Q92796
# T4 sequence (Q92796 221-321, limits assumed, looked up): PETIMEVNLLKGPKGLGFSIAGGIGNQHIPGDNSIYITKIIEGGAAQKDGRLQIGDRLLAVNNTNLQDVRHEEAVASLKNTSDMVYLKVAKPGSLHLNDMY
# T5: GRIP1_3, Q9Y3R0
# T5 sequence (Q9Y3R0 247-346, limits assumed, looked up): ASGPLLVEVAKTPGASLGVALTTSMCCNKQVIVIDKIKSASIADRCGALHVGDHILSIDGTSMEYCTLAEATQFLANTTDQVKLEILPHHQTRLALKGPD
# T6: GRIP1_4, Q9Y3R0
# T6 sequence (Q9Y3R0 467-571, limits assumed, looked up): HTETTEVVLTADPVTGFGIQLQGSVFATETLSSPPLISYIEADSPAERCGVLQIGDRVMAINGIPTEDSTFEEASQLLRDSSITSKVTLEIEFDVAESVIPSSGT
# T7: HTRA3, P83110
# T7 sequence (P83110 354-453, limits assumed, looked up): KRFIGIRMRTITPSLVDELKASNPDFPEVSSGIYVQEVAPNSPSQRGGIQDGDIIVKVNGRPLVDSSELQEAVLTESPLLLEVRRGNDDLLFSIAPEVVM
# T8: LIN7B, Q9HAP6
# T8 sequence (Q9HAP6 88-185, limits assumed, looked up): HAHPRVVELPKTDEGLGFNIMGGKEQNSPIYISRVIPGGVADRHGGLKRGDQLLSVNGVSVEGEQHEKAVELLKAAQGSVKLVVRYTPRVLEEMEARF
# T9: LIN7C, Q9NUP9
# T9 sequence (Q9NUP9 88-185, limits assumed, looked up): T8 sequence (Q9HAP6 88-185, limits assumed, looked up) with A2S, D13E, V35I, V40I, Q65H, S79K, R89K, A96S
# T10: MPP7, Q5T2T1
# T10 sequence (Q5T2T1 134-230, limits assumed, looked up): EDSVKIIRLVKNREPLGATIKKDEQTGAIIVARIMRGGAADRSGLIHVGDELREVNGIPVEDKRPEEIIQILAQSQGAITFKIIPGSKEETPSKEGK
# T11: PDZRN3_1, Q9UPQ7
# T11 sequence (Q9UPQ7 244-349, limits assumed, looked up): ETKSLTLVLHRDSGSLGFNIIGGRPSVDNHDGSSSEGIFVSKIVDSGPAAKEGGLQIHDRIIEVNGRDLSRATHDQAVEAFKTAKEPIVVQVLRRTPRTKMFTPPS
# B1: RASL11B, Q9BPW5 (peptide)
# chain: SAKVRTVTSV
# B2: TRMT13, Q9NUP7 (peptide)
# chain: NHSSSPETTA
# Molecular target: T1, APBA1_1, Q02410
# Experiment: holdup assay
# Parameters: key: below the threshold = too weak to quantify, mostly under pKd 3.1 to 4
# Conditions: plain residues with an end cap or a label only (N-terminal biotin on a linker: ado-ado)
row,pKd,Binder
1,below the threshold,B1
2,below the threshold,B2

# Molecular target: T2, ARHGAP21, Q5T5U3
# Experiment: holdup assay
# Parameters: key: below the threshold = too weak to quantify, mostly under pKd 3.1 to 4
# Conditions: plain residues with an end cap or a label only (N-terminal biotin on a linker: ado-ado)
row,pKd,Binder
1,below the threshold,B1
2,below the threshold,B2

# Molecular target: CASK, O14936
# Experiment: holdup assay
# Parameters: key: below the threshold = too weak to quantify, mostly under pKd 3.1 to 4
# Conditions: plain residues with an end cap or a label only (N-terminal biotin on a linker: ado-ado)
# Sequence of CASK, O14936 (O14936 487-570): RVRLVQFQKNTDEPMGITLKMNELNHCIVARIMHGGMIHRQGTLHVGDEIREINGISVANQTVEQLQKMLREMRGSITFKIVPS
row,pKd,Binder
1,below the threshold,B1
2,below the threshold,B2

# Molecular target: T3, DFNB31_2, Q9P202
# Experiment: holdup assay
# Parameters: key: below the threshold = too weak to quantify, mostly under pKd 3.1 to 4
# Conditions: plain residues with an end cap or a label only (N-terminal biotin on a linker: ado-ado)
row,pKd,Binder
1,below the threshold,B1
2,below the threshold,B2

# Molecular target: T4, DLG3_2, Q92796
# Experiment: holdup assay
# Parameters: key: below the threshold = too weak to quantify, mostly under pKd 3.1 to 4
# Conditions: plain residues with an end cap or a label only (N-terminal biotin on a linker: ado-ado)
row,pKd,Binder
1,4.78,B1
2,4.09,B2

# Molecular target: DLG4_1, P78352
# Experiment: holdup assay
# Parameters: key: below the threshold = too weak to quantify, mostly under pKd 3.1 to 4
# Conditions: plain residues with an end cap or a label only (N-terminal biotin on a linker: ado-ado)
# Sequence of DLG4_1, P78352 (P78352 62-152): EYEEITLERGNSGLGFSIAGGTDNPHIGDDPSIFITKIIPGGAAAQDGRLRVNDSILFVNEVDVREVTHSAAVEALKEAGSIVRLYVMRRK
row,pKd,Binder
1,4.65,B1
2,below the threshold,B2

# Molecular target: FRMPD3, Q5JV73
# Experiment: holdup assay
# Parameters: key: below the threshold = too weak to quantify, mostly under pKd 3.1 to 4
# Conditions: plain residues with an end cap or a label only (N-terminal biotin on a linker: ado-ado)
# Sequence of FRMPD3, Q5JV73 (Q5JV73 12-100): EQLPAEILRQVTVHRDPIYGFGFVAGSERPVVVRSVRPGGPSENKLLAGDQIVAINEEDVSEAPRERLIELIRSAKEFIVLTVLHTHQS
row,pKd,Binder
1,below the threshold,B1
2,below the threshold,B2

# Molecular target: FRMPD4, Q14CM0
# Experiment: holdup assay
# Parameters: key: below the threshold = too weak to quantify, mostly under pKd 3.1 to 4
# Conditions: plain residues with an end cap or a label only (N-terminal biotin on a linker: ado-ado)
# Sequence of FRMPD4, Q14CM0 (Q14CM0 67-160): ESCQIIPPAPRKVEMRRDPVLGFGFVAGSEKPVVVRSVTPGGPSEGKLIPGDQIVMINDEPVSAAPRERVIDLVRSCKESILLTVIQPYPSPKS
row,pKd,Binder
1,below the threshold,B1
2,below the threshold,B2

# Molecular target: GIPC2, Q8TF65
# Experiment: holdup assay
# Parameters: key: below the threshold = too weak to quantify, mostly under pKd 3.1 to 4
# Conditions: plain residues with an end cap or a label only (N-terminal biotin on a linker: ado-ado)
# Sequence of GIPC2, Q8TF65 (Q8TF65 112-203): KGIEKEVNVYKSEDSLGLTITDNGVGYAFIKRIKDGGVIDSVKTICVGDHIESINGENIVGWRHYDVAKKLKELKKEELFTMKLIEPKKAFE
row,pKd,Binder
1,below the threshold,B1
2,below the threshold,B2

# Molecular target: GORASP1, Q9BQQ3
# Experiment: holdup assay
# Parameters: key: below the threshold = too weak to quantify, mostly under pKd 3.1 to 4
# Conditions: plain residues with an end cap or a label only (N-terminal biotin on a linker: ado-ado)
# Sequence of GORASP1, Q9BQQ3 (Q9BQQ3 1-208): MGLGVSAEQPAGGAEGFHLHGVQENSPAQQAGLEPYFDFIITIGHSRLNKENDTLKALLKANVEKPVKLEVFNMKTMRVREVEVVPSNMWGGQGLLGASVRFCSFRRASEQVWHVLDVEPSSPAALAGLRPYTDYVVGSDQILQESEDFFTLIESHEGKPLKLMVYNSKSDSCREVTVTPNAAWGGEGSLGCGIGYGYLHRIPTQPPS
row,pKd,Binder
1,3.76,B1
2,below the threshold,B2

# Molecular target: GORASP2, Q9H8Y8
# Experiment: holdup assay
# Parameters: key: below the threshold = too weak to quantify, mostly under pKd 3.1 to 4
# Conditions: plain residues with an end cap or a label only (N-terminal biotin on a linker: ado-ado)
row,pKd,Binder
1,4.56,B1
2,below the threshold,B2

# Molecular target: GRID2IP_1, A4D2P6
# Experiment: holdup assay
# Parameters: key: below the threshold = too weak to quantify, mostly under pKd 3.1 to 4
# Conditions: plain residues with an end cap or a label only (N-terminal biotin on a linker: ado-ado)
# Sequence of GRID2IP_1, A4D2P6 (A4D2P6 1-87): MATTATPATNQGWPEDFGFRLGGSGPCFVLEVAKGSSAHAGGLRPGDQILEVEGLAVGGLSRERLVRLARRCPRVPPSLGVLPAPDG
row,pKd,Binder
1,below the threshold,B1
2,below the threshold,B2

# Molecular target: T5, GRIP1_3, Q9Y3R0
# Experiment: holdup assay
# Parameters: key: below the threshold = too weak to quantify, mostly under pKd 3.1 to 4
# Conditions: plain residues with an end cap or a label only (N-terminal biotin on a linker: ado-ado)
row,pKd,Binder
1,below the threshold,B1
2,below the threshold,B2

# Molecular target: T6, GRIP1_4, Q9Y3R0
# Experiment: holdup assay
# Parameters: key: below the threshold = too weak to quantify, mostly under pKd 3.1 to 4
# Conditions: plain residues with an end cap or a label only (N-terminal biotin on a linker: ado-ado)
row,pKd,Binder
1,below the threshold,B1
2,below the threshold,B2

# Molecular target: GRIP2_5, Q9C0E4
# Experiment: holdup assay
# Parameters: key: below the threshold = too weak to quantify, mostly under pKd 3.1 to 4
# Conditions: plain residues with an end cap or a label only (N-terminal biotin on a linker: ado-ado)
# Sequence of GRIP2_5, Q9C0E4 (Q9C0E4 544-642): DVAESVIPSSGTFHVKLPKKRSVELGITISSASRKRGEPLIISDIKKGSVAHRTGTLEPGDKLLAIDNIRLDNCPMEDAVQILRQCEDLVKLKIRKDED
row,pKd,Binder
1,below the threshold,B1
2,below the threshold,B2

# Molecular target: T7, HTRA3, P83110
# Experiment: holdup assay
# Parameters: key: below the threshold = too weak to quantify, mostly under pKd 3.1 to 4
# Conditions: plain residues with an end cap or a label only (N-terminal biotin on a linker: ado-ado)
row,pKd,Binder
1,below the threshold,B1
2,below the threshold,B2

# Molecular target: Inadl_2, Q8NI35
# Experiment: holdup assay
# Parameters: key: below the threshold = too weak to quantify, mostly under pKd 3.1 to 4
# Conditions: plain residues with an end cap or a label only (N-terminal biotin on a linker: ado-ado)
# Sequence of Inadl_2, Q8NI35 (Q8NI35 238-335): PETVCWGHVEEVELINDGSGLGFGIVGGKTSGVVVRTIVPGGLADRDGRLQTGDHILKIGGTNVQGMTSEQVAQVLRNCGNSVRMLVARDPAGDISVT
row,pKd,Binder
1,below the threshold,B1
2,below the threshold,B2

# Molecular target: T8, LIN7B, Q9HAP6
# Experiment: holdup assay
# Parameters: key: below the threshold = too weak to quantify, mostly under pKd 3.1 to 4
# Conditions: plain residues with an end cap or a label only (N-terminal biotin on a linker: ado-ado)
row,pKd,Binder
1,below the threshold,B1
2,below the threshold,B2

# Molecular target: T9, LIN7C, Q9NUP9
# Experiment: holdup assay
# Parameters: key: below the threshold = too weak to quantify, mostly under pKd 3.1 to 4
# Conditions: plain residues with an end cap or a label only (N-terminal biotin on a linker: ado-ado)
row,pKd,Binder
1,below the threshold,B1
2,below the threshold,B2

# Molecular target: LNX1_1, Q8TBB1
# Experiment: holdup assay
# Parameters: key: below the threshold = too weak to quantify, mostly under pKd 3.1 to 4
# Conditions: plain residues with an end cap or a label only (N-terminal biotin on a linker: ado-ado)
# Sequence of LNX1_1, Q8TBB1 (Q8TBB1 261-371): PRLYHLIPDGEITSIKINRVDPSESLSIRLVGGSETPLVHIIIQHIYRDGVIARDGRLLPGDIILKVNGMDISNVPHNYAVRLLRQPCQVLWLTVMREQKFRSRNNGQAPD
row,pKd,Binder
1,4.04,B1
2,below the threshold,B2

# Molecular target: MAGI2_3, Q86UL8
# Experiment: holdup assay
# Parameters: key: below the threshold = too weak to quantify, mostly under pKd 3.1 to 4
# Conditions: plain residues with an end cap or a label only (N-terminal biotin on a linker: ado-ado)
# Sequence of MAGI2_3, Q86UL8 (Q86UL8 600-682): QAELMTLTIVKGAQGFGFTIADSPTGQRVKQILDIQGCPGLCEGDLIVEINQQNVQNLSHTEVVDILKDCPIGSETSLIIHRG
row,pKd,Binder
1,4.25,B1
2,below the threshold,B2

# Molecular target: MAGI2_4, Q86UL8
# Experiment: holdup assay
# Parameters: key: below the threshold = too weak to quantify, mostly under pKd 3.1 to 4
# Conditions: plain residues with an end cap or a label only (N-terminal biotin on a linker: ado-ado)
# Sequence of MAGI2_4, Q86UL8 (Q86UL8 772-865): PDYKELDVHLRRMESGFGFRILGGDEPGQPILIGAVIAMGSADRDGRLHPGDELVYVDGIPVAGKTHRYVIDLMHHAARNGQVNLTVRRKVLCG
row,pKd,Binder
1,4.19,B1
2,below the threshold,B2

# Molecular target: T10, MPP7, Q5T2T1
# Experiment: holdup assay
# Parameters: key: below the threshold = too weak to quantify, mostly under pKd 3.1 to 4
# Conditions: plain residues with an end cap or a label only (N-terminal biotin on a linker: ado-ado)
row,pKd,Binder
1,below the threshold,B1
2,below the threshold,B2

# Molecular target: NHERF4_2, Q86UT5
# Experiment: holdup assay
# Parameters: key: below the threshold = too weak to quantify, mostly under pKd 3.1 to 4
# Conditions: plain residues with an end cap or a label only (N-terminal biotin on a linker: ado-ado)
# Sequence of NHERF4_2, Q86UT5 (Q86UT5 220-308): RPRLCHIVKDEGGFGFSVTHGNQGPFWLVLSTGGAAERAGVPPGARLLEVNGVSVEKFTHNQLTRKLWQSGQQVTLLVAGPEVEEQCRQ
row,pKd,Binder
1,below the threshold,B1
2,below the threshold,B2

# Molecular target: T11, PDZRN3_1, Q9UPQ7
# Experiment: holdup assay
# Parameters: key: below the threshold = too weak to quantify, mostly under pKd 3.1 to 4
# Conditions: plain residues with an end cap or a label only (N-terminal biotin on a linker: ado-ado)
row,pKd,Binder
1,3.71,B1
2,below the threshold,B2
